Read-outs that look alike come from different tables or passages of the source.
T1: DNA polymerase alpha catalytic subunit POLA1 (334-1462) (human, UniProt P09884 334-1462)
T1 sequence (looked up): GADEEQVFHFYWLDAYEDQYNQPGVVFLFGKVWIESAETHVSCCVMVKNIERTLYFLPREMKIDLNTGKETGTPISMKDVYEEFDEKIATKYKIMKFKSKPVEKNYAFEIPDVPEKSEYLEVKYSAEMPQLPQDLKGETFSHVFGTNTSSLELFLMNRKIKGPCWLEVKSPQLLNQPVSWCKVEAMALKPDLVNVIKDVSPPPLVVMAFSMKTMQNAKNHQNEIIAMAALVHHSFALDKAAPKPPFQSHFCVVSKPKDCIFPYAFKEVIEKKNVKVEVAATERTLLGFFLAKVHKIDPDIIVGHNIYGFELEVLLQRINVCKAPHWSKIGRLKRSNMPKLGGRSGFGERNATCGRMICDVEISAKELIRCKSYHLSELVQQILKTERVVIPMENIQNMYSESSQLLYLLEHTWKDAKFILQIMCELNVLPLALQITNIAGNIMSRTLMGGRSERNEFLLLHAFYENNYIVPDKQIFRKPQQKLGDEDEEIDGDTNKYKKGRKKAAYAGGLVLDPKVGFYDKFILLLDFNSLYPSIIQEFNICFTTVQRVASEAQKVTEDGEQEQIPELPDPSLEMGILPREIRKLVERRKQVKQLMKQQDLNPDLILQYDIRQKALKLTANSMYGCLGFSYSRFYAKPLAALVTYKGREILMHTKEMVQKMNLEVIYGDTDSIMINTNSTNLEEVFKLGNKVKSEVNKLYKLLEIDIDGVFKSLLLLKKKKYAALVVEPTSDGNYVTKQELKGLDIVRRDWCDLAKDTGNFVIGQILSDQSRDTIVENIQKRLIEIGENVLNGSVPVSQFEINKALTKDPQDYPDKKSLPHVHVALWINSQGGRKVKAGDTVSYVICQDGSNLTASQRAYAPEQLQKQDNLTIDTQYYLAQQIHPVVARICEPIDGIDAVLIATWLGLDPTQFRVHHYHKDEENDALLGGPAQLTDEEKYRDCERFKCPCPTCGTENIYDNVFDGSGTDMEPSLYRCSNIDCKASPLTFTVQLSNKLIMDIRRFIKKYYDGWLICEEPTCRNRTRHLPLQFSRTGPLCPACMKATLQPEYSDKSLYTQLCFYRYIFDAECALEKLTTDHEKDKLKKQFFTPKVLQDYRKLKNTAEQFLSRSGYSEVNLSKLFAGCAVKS

B1: DNA polymerase alpha accessory B subunit POLA2 (149-598) (domain or fragment, human, UniProt Q14181 149-598, looked up)
chain: SSFSPSATPSQKYNSRSNRGEVVTSFGLAQGVSWSGRGGAGNISLKVLGCPEALTGSYKSMFQKLPDIREVLTCKIEELGSELKEHYKIEAFTPLLAPAQEPVTLLGQIGCDSNGKLNNKSVILEGDREHSSGAQIPVDLSELKEYSLFPGQVVIMEGINTTGRKLVATKLYEGVPLPFYQPTEEDADFEQSMVLVACGPYTTSDSITYDPLLDLIAVINHDRPDVCILFGPFLDAKHEQVENCLLTSPFEDIFKQCLRTIIEGTRSSGSHLVFVPSLRDVHHEPVYPQPPFSYSDLSREDKKQVQFVSEPCSLSINGVIFGLTSTDLLFHLGAEEISSSSGTSDRFSRILKHILTQRSYYPLYPPQEDMAIDYESFYVYAQLPVTPDVLIIPSELRYFVKDVLGCVCVNPGRLTKGQVGGTFARLYLRRPAADGAERQSPCIAVQVVRI
B2: primase catalytic subunit PRIM1 (1-420) (enzyme, human, UniProt P49642 1-420, looked up)
chain: METFDPTELPELLKLYYRRLFPYSQYYRWLNYGGVIKNYFQHREFSFTLKDDIYIRYQSFNNQSDLEKEMQKMNPYKIDIGAVYSHRPNQHNTVKLGAFQAQEKELVFDIDMTDYDDVRRCCSSADICPKCWTLMTMAIRIIDRALKEDFGFKHRLWVYSGRRGVHCWVCDESVRKLSSAVRSGIVEYLSLVKGGQDVKKKVHLSEKIHPFIRKSINIIKKYFEEYALVNQDILENKESWDKILALVPETIHDELQQSFQKSHNSLQRWEHLKKVASRYQNNIKNDKYGPWLEWEIMLQYCFPRLDINVSKGINHLLKSPFSVHPKTGRISVPIDLQKVDQFDPFTVPTISFICRELDAISTNEEEKEENEAESDVKHRTRDYKKTSLAPYVKVFEHFLENLDKSRKGELLKKSDLQKDF
B3: primase regulatory subunit PRIM2 (1-509) (natural protein, human, UniProt P49643 1-509, looked up)
chain: MEFSGRKWRKLRLAGDQRNASYPHCLQFYLQPPSENISLIEFENLAIDRVKLLKSVENLGVSYVKGTEQYQSKLESELRKLKFSYRENLEDEYEPRRRDHISHFILRLAYCQSEELRRWFIQQEMDLLRFRFSILPKDKIQDFLKDSQLQFEAISDEEKTLREQEIVASSPSLSGLKLGFESIYKIPFADALDLFRGRKVYLEDGFAYVPLKDIVAIILNEFRAKLSKALALTARSLPAVQSDERLQPLLNHLSHSYTGQDYSTQGNVGKISLDQIDLLSTKSFPPCMRQLHKALRENHHLRHGGRMQYGLFLKGIGLTLEQALQFWKQEFIKGKMDPDKFDKGYSYNIRHSFGKEGKRTDYTPFSCLKIILSNPPSQGDYHGCPFRHSDPELLKQKLQSYKISPGGISQILDLVKGTHYQVACQKYFEMIHNVDDCGFSLNHPNQFFCESQRILNGGKDIKKEPIQPETPQPKPSVQKTKDASSALASLNSSLEMDMEGLEDYFSEDS

Key:
Assay in all cases: cryo-EM structure
[1] = biological target: T1, DNA polymerase alpha catalytic subunit …
[2] = biological target: B3
[3] = biological target: T1, DNA polymerase alpha catalytic subunit …; remark: listed apart in the source

binding result [1] | binding result [2] | binding result [3] | Binder
binds | – | – | B1
binds | binds | – | B2
– | – | binds | B3
